Experimental data reported in patent publication US20030138873A1, “Tissue engineered cartilage for drug discovery” (priority 2002, published 2003).

Assays:
[1] = system: engineered cartilage tissue; assay: Cartilage matrix turnover measured using radiolabelling (35S-proteoglycan chase); type: cell-based, bovine; details: for T½ of 35S-PGs in the tissue (loss of 35S-PGs) / T½ of 35S-PGs, bimodal rate of disappearance from the tissue: IL-1α 1 ng/ml; for T½ of 35S-PGs in the tissue (loss of 35S-PGs): 7-day chase; for T½ of 35S-PGs, bimodal rate of disappearance from the tissue: double exponential decay fit
Protocol: (§1) Engineered Cartilage Tissue Formation: Engineered cartilage tissue was prepared as described in U.S. Pat. No. 6,197,061. Briefly, bovine articular chondrocytes were isolated from steer (14-18 months) and cultured in beads of 1.2% low viscosity alginate (Keltone LV, Kelco) at 4 million cells/ml in daily changes of medium containing 20% FBS, 25 μg/ml ascorbate and 10 μg/ml gentamicin, as described above in Mok, et al. On day 7, beads were dissolved by incubation for 20 minutes in 55 mM NaCitrate in 150 mM NaCl. The cells with their CM (cellular matrix) were recovered by mild centrifugation. The cells with their CM were resuspended in complete medium and seeded onto a tissue culture insert (0.4 μm pore size; 23 mm diameter, Falcon). After 7 and 21 days in culture, the de novo formed tissue was separated from the porous membrane and 4 mm diameter discs were punched out using a skin biopsy punch.
Discs of engineered cartilage tissue were punched out from engineered cartilage tissue on day 7 and 21 and were incubated for 16 h in complete medium containing ^35S-sulfate (20 μCi/ml). After washing to remove unincorporated radioisotope, the discs were cultured for 7 days in isotope-free medium with or without IL-1α (1 ng/ml). The medium in all cases was changed and collected for the measurement of ^35S-labeled proteoglycans (^35S-PGs). At various times, discs were collected and the content of ^35S-PGs in each disc and the corresponding spent medium fraction was measured by a rapid filtration assay (4). For each set of conditions (i.e. with or without IL-1α) the amount of radiolabeled PGs remaining in each matrix pool was plotted against time of chase to measure the average half-life of ^35S-PGs in each compartment. The data were fitted to the double exponential decay equation: y=ae^−bx+ce^−d+e and the half-life calculated based on b and d. Mok, et al., Aggrecan synthesized by mature bovine chondrocytes suspended in alginate: Identification of two distinct metabolic matrix pool, Biol. Chem., 269, 33021-33027 (1994)

[2] = system: engineered cartilage tissue; assay: Cartilage matrix turnover measured without radiolabelling (PG content by DMMB method); type: cell-based, bovine
Protocol: as §1
Discs of engineered cartilage tissue was punched out from engineered cartilage tissue on day 7 and cultured for 5 days in complete medium with/without IL-1α (1 ng/ml). Engineered cartilage tissue was obtained as described above. On days 1, 2, 3 and 5, the discs were harvested and digested with papain. After digestion the contents of sulfated PG and DNA were measured by the DMMB method and Hoechst 33258-dye method, respectively. […]

[3] = tissue radiolabeled on day 7 [1W]
[4] = tissue radiolabeled on day 21 [3W]

B1: IL-1: cytokine interleukin-1 (IL-1α), known modulator inducing cartilage matrix degradation, used at 1 ng/ml (protein, UniProt P01583 113-271, looked up)
Interleukin-1 alpha: SAPFSFLSNVKYNFMRIIKYEFILNDALNQSIIRANDQYLTAAALHNLDEAVKFDMGAYKSSKDDAKITVILRISKTQLYVTAQDEDQPVLLKEMPEIPKTITGSETNLLFFWETHGTKNYFTSVAHPNLFIATKQDYWVCLAGGPPSITDFQILENQA
With B1 as the molecule, how does the “T½ of 35S-PGs in the tissue (loss of 35S-PGs)” value [1, 3] read?
The value was 41.5 h.

And the “T½ of 35S-PGs, bimodal rate of disappearance from the tissue” value [1, 3]?
The value was 3.6 h.

What about the “T½ of 35S-PGs in the tissue (loss of 35S-PGs)” value [1, 4] of the same molecule?
Its value is 49.9 h.

What about the “T½ of 35S-PGs, bimodal rate of disappearance from the tissue” value [1, 4] of the same molecule?
The value was 35.5 h.

What about the “appearance in the medium of 35S-PGs” value ([1]; addition of IL-1 to the medium (1 ng/ml)) of the same molecule?
Its value is “rapid increase”.

And the “loss of the PGs from the engineered cartilage tissue” value ([2]; IL-1 at 1 ng/ml, single day of treatment, day 7 discs)?
Its value is 50%.

And the “loss of proteoglycan content of engineered cartilage matrix” value ([2]; within a single day after treatment with IL-1)?
The value was “roughly half”.
